Data on five molecules can be found in publication PMC4431850 (PLoS ONE, 2015).

Data set [1] deals with the molecule itself. Description: SEC-MALS; light scattering experiments, data not shown; oligomeric state. (SEC sorts molecules by how far they enter the pores of the column.)
Data set [2] deals with the molecule itself. Description: SEC-MALS; Superdex200 10/30 coupled to light scattering (miniDAWN TREOS) and refractive index detectors; 20 mM sodium phosphate pH 7.5, 2 mM DTT; oligomeric state.
Data set [3] concerns the target T1, Cul3^NTD, N-terminal region (residues 20-381) of cullin 3 (UniProt Q13618 20-381).
T1 construct: cullin 3, N-terminal region, residues 20-381; Printed Mw 42 kDa; source: expressed and purified according to Balasco et al. [19]; recombinant, bacterial system
Description: SEC; BTB domain mixed with Cul3^NTD at 4°C in 20 mM NaP, 200 mM NaCl, 2 mM DTT pH 7.5; Superdex 200 10/30; SDS-PAGE of the peaks. Particulars: both partners purified.

Data set [4] has as its target T1, Cul3^NTD, N-terminal region (residues …). Description: ITC; BTB domain (55 μM as tetramer) titrated into Cul3^NTD (25 μM); 22°C; 20 mM NaP, 200 mM NaCl, 2 mM DTT pH 7.5; single-binding site model. As to conditions: both partners purified. (Isothermal titration calorimetry measures the heat released or taken up as one component is titrated into another.)

T1 sequence (Q13618 20-381): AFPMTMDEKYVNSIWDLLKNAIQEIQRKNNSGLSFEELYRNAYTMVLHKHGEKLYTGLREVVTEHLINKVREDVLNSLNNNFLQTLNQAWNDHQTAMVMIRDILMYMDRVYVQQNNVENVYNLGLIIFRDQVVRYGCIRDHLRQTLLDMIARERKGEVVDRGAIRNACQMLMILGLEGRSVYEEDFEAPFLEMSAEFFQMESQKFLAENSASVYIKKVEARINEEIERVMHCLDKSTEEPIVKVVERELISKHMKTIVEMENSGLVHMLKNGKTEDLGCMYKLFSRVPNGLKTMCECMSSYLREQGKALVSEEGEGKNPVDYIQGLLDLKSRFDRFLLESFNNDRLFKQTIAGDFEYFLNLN

B1: BTB domain of KCTD6 (KCTD6^BTB) (domain or fragment, UniProt Q8NC69 10-110, looked up)
chain: MTDPVTLNVGGHLYTTSLTTLTRYPDSMLGAMFGGDFPTARDPQGNYFIDRDGPLFRYVLNFLRTSELTLPLDFKEFDLLRKEADFYQIEPLIQCLNDPKP
notes: KCTD6, BTB domain, residues 10-110 of UniProt Q8NC69; Tetramer (~46 kDa); source: E. coli BL21(DE3), purified (protocol of Pirone et al. [23])
One may read the stoichiometry N as the number of molecules, sites or subunits per partner or assembly. As for B1, in data set [1], the “stoichiometry N” value is 4.

B2: chimeric BTB domain CHIM11/12^BTB (KCTD11^BTB with residues 42-63 replaced by residues 61-80 of KCTD12^BTB) (domain or fragment, UniProt Q693B1-2 15-41, looked up)
chain: GPVTLNVGGTLYSTTLETLTRFPDSMLWRMFTQQQPQELARDSKGRFFIDRDGKAFRHILNFLRLGRLDLPRGYGETALLRAEADFYQIRPLLDALRELE
notes: KCTD11 BTB domain (15-116 of the long form, isoform 2) up to the replaced α2β3 loop (42-63); numbers count on: the long form (isoform 2); KCTD12, residues 61-80, predicted α2β3 loop; KCTD11 BTB domain (15-116 of the long form, isoform 2) after the replaced α2β3 loop (42-63); also called chimeric variant of KCTD11; source: E. coli, purified (procedure used for KCTD11 [5])
Regarding B2, the “stoichiometry N” value in data set [2] is 4.

B3: BTB domain of KCTD11 (KCTD11^BTB) (domain or fragment, UniProt Q693B1-2 15-116, looked up)
chain: GPVTLNVGGTLYSTTLETLTRFPDSMLGAMFRAGTPMPPNLNSQGGGHYFIDRDGKAFRHILNFLRLGRLDLPRGYGETALLRAEADFYQIRPLLDALRELE
notes: KCTD11, BTB domain, residues 15-116 of the long form of the protein (isoform 2, UniProt Q693B1-2); numbers count on: the long form (isoform 2); Tetramer (~46 kDa); source: E. coli BL21(DE3), purified (procedure of Correale et al. [5])
As a reminder, the Kd is the free concentration of one partner at which half of the binding sites on the other are occupied at equilibrium, for simple one-to-one binding. Low readings indicate higher affinity, high ones lower affinity. For B3, the “stoichiometry N” value in data set [1] was 4; in data set [3], 1 BTB chains : Cul3^NTD (4:4); in data set [4], ~0.25 KCTD tetramers per Cul3^NTD. The molecule further showed a Kd in data set [4] of 25 ± 2 nM. In data set [4], this molecule gave a dH of -21 ± 0.1 kcal/mol.

B4: BTB domain of KCTD15 (KCTD15^BTB) (domain or fragment, human, UniProt Q96SI1-1 61-157, looked up)
chain: DVGGHMYTSSLATLTKYPDSRISRLFNGTEPIVLDSLKQHYFIDRDGEIFRYVLSFLRTSKLLLPDDFKDFSLLYEEARYYQLQPMVRELERWQQEQ
notes: KCTD15, human, BTB domain, residues 61-157 of UniProt Q96SI1-1; cloned NdeI/EcoRI into pET28b+; Tetramer by light scattering (47.1 kDa against 47.5 kDa expected); source: E. coli BL21(DE3) pLys-S co-transformed with pREP4 GroESL, purified (Ni-NTA, Superdex200)
Regarding B4, the “stoichiometry N” value in data set [2] stood at 4.

B5: BTB domain of KCTD12 (KCTD12^BTB) (domain or fragment, UniProt Q96CX2 27-131, looked up)
chain: AEPPLFPDIVELNVGGQVYVTRRCTVVSVPDSLLWRMFTQQQPQELARDSKGRFFLDRDGFLFRYILDYLRDLQLVLPDYFPERSRLQREAEYFELPELVRRLGA
notes: KCTD12, BTB domain, residues 27-131 of UniProt Q96CX2; Tetramer (~46 kDa); source: E. coli BL21(DE3), purified (procedure of Correale et al. [24] and Errington et al. [25])
On to B5, for which the “stoichiometry N” value in data set [1] is 4.
